Test results from PMC2629775.

Assays:
[1] = target: Mycobacterium leprae small heat shock protein (sHsp18) (Mycobacterium leprae); assay: SEC; Sephacryl column; sHsp18 purified by denaturing method, dialysed against 50 mM PBS with 200 mM NaCl, pH 7.2, 4°C, 6 hrs, acetone precipitated, resuspended in PBS
[2] = target: Mycobacterium leprae small heat shock protein (sHsp18) (Mycobacterium leprae); assay: native gel or EMSA; non-denaturing 7.5% polyacrylamide gel of MagneHis-purified sHsp18, against high molecular weight markers, Coomassie stain
[3] = target: Mycobacterium leprae small heat shock protein (sHsp18) (Mycobacterium leprae); assay: SEC; as a1 but after extended dialysis against PBS; data not shown

## Mycobacterium leprae small heat shock protein (sHsp18) (natural protein)
[1]
  stoichiometry N: 6
[2]
  stoichiometry N: 9
[3]
  stoichiometry N: 9
